Measurements from article PMC7299998, “Recombinant Bri3 BRICHOS domain is a molecular chaperone with effect against amyloid formation and non-fibrillar protein aggregation” (Scientific Reports, 2020).
Each block holds one binder with its values, some of them ahead of it.

Assays:
[1] = molecular target: the molecule itself; test: SEC; rh BRICHOS alone on Superose 6 10/300 GL, 0.5 ml/min, 20 mM PB, 0.2 mM EDTA pH 8.0 or 20 mM ammonium acetate pH 8.0; hydrodynamic diameter by comparison with standards
[2] = molecular target: T1, citrate synthase (CS) from porcine heart (porcine, UniProt P00889 28-464); test: SEC; supernatant of CS:rh Bri3 BRICHOS 1:2 molar ratio after 2 h at 45 °C and centrifugation; Superose 6, 20 mM ammonium acetate pH 8.0, 0.7 ml/min; peak fractions by reducing SDS-PAGE; details: both partners purified
T1 construct: citrate synthase, mitochondrial, from porcine heart; Used native (fresh) or partly heat-denatured (2 h at 45 °C); the assays tell the two states apart; source: bought: Sigma-Aldrich (from porcine heart)
T1 sequence (looked up): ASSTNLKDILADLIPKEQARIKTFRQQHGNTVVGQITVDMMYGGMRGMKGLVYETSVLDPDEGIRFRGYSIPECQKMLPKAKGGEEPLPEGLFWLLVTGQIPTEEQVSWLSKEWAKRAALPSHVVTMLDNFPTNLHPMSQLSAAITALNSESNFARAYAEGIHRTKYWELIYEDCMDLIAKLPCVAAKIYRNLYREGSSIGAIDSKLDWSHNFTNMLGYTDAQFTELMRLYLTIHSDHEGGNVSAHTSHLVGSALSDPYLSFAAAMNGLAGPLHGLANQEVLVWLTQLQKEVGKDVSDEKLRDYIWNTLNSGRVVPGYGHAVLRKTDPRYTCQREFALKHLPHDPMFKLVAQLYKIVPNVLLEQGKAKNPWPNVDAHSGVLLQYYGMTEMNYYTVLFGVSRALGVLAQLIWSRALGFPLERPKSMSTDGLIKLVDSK

[3] = molecular target: the molecule itself; test: negative-stain transmission electron microscopy; oligomers isolated by SEC (Superose 6, 20 mM ammonium acetate pH 8.0), uranyl acetate stain, reference-free 2D classification, Feret's diameters

- binding result [2]: binds
B1: recombinant human (rh) Bri3 BRICHOS domain (domain or fragment, UniProt Q9NQX7 112-230, looked up)
chain: MELEEDVKIYLDENYERINVPVPQFGGGDPADIIHDFQRGLTAYHDISLDKCYVIELNTTIVLPPRNFWELLMNVKRGTYLPQTYIIQEEMVVTEHVSDKEALGSFIYHLCNGKDTYRL
notes: Bri3, human, residues 112-230 (BRICHOS domain); Bri3 is a 267-residue protein; Mainly high molecular weight oligomers, partly held by disulfide bonds; Calculated monomer mass 17.3 kDa with the S tag; Vector pET-32c(+); also called Bri3(112-230); rh (S-tag) Bri3 BRICHOS; source: E. coli Shuffle T7, purified (Ni-Sepharose from 2 M urea extract, thrombin cleavage, second Ni-Sepharose); not shown: …
- binding result [1]: binds

B2: recombinant human (rh) Bri2 BRICHOS domain (domain or fragment, UniProt Q9Y287 90-236, looked up)
chain: GIKYIKDDVILNEPSADAPAALYQTIEENIKIFEEEEVEFISVPVPEFADSDPANIVHDFNKKLTAYLDLNLDKCYVIPLNTSIVMPPRNLLELLINIKAGTYLPQSYLIHEHMVITDRIENIDHLGFFIYRLCHDKETYKLQRRET
notes: Bri2 (ITM2B), human, residues 90-236 (linker part and BRICHOS domain); The modelled and aligned Bri2 BRICHOS is 113-231; the expressed construct is 90-236; Vector pET-32c(+); also called Bri2(90-236); source: E. coli Shuffle T7, purified (Ni-Sepharose from 2 M urea extract, thrombin cleavage, second Ni-Sepharose); not shown: Trx, N-terminal, cleaved; His6, N-terminal, cleaved; S tag, N-terminal, …
- binding result [3]: binds
